Molecular target: eGFP-tagged htau 441 ΔK280 mutant (eGFP-tau ΔK280) (human) (UniProt P10636)
Assay: fluorescence correlation spectroscopy (FCS/FCCS) in live cells; HEK293T cells overexpressing fluorescent-protein-fused tau; diffusion coefficient fitted (3D normal diffusion), mass by Stokes-Einstein, calibrated with eGFP-mCherry fusion; only tau not bound to microtubules

Q: “eGFP-tagged htau 441 ΔK280 mutant (eGFP-tau ΔK280) (from UniProt P10636-8 1-441) (natural protein)” was tested. Which stoichiometry N did it give?
A: 19

Source: article PMC11849630
